Measurements as given in paper PMC12001967, “Different RNA recognition by ProQ and FinO depends on the sequence surrounding intrinsic terminator hairpins”.
Substitutions are numbered along the chain they refer to. Numbers in names are those of the source.

How the values were obtained:
[1] = target: T1, ProQNTD (FinO domain of ProQ) (Escherichia coli, UniProt P45577 1-130); test: EMSA; 25 mM Tris-HCl pH 7.5, 150 mM NaCl, 5% glycerol, 1 mM MgCl2, 1 nM 32P-RNA, 30 min at room temperature; native 6% PAGE in 0.5x TBE at 4 C; settings: protein: recombinant, tags: pET-15b construct, label: 32P
T1 sequence: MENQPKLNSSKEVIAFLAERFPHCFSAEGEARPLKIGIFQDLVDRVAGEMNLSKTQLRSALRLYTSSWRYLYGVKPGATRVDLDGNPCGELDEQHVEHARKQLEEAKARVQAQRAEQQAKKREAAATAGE

ProQ [2] = target: T2, ProQ (Escherichia coli, UniProt P45577 1-232); test: as above; settings: protein: recombinant, tags: pET-15b construct, label: 32P
T2 sequence: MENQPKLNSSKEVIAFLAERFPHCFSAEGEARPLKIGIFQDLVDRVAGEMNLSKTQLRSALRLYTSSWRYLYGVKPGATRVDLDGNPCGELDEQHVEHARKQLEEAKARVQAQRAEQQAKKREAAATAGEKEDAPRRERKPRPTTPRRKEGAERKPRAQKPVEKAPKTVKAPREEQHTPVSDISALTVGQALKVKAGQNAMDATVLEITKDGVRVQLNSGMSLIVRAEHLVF

FinO [3] = target: T3, FinO (F-like plasmid (Escherichia coli), UniProt P29367 1-186); test: EMSA; max bound 57%; 150 mM NaCl, 25 mM Tris-HCl pH 7.5, 5% glycerol, 1 mM MgCl2, 1 nM 32P-RNA, 30 min at room temperature; native 6% PAGE in 0.5x TBE at 4 C; settings: protein: recombinant; tags: His6-TEV site (ENLYFQ/S) N-terminal in the expression construct; label: 32P; terminator hairpin
T3 sequence: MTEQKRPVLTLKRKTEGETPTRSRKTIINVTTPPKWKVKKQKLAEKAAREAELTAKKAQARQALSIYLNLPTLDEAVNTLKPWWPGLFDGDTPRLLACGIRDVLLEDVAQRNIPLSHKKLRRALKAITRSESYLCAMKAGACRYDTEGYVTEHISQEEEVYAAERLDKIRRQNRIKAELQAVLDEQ

FinO [4] = target: T3, FinO; test: EMSA; 25 mM Tris-HCl pH 7.5, 150 mM NaCl, 5% glycerol, 1 mM MgCl2, 1 nM 32P-RNA, 30 min at room temperature; native 6% PAGE in 0.5x TBE at 4 C; settings: protein: recombinant, tags: His6-TEV site (ENLYFQ/S) N-terminal in the expression construct, label: 32P
ProQ [5] = target: T2, ProQ; test: EMSA; max bound 85%; 150 mM NaCl, 25 mM Tris-HCl pH 7.5, 5% glycerol, 1 mM MgCl2, 1 nM 32P-RNA, 30 min at room temperature; native 6% PAGE in 0.5x TBE at 4 C; settings: protein: recombinant; tags: pET-15b construct; label: 32P; terminator hairpin
FinO [6] = target: T3, FinO; test: EMSA; max bound 55%; 150 mM NaCl, 25 mM Tris-HCl pH 7.5, 5% glycerol, 1 mM MgCl2, 1 nM 32P-RNA, 30 min at room temperature; native 6% PAGE in 0.5x TBE at 4 C; settings: protein: recombinant; tags: His6-TEV site (ENLYFQ/S) N-terminal in the expression construct; label: 32P; terminator hairpin
ProQ [7] = target: T2, ProQ; test: EMSA; max bound 67%; 150 mM NaCl, 25 mM Tris-HCl pH 7.5, 5% glycerol, 1 mM MgCl2, 1 nM 32P-RNA, 30 min at room temperature; native 6% PAGE in 0.5x TBE at 4 C; settings: protein: recombinant; tags: pET-15b construct; label: 32P; terminator hairpin
[8] = terminator hairpin, A-G then C-A mismatch below, GAU4 tail
[9] = terminator hairpin, 5' A4 paired with first four U of U8 tail

B1: FinP-malM (structured_RNA)
RNA: GGAUACAUAGGAACCUCCUCACAAAGGAUUCUAUGGACUGUCGAUGCAGGGAGUUCACGUCUCCCUGCAUCGGCUUUUUUU
- Kd ([1]; terminator hairpin): 5.3 ± 1.5 nM
- Kd (ProQ [2]; terminator hairpin): 25 ± 6.7 nM
- Kd (FinO [3]): 280 ± 110 nM

B2: cspE81-FinP-stem (structured_RNA)
RNA: GGCCCUUCUGCUGCAAACGUAAUCGCUCUGUAAGAUACGUCAGCAAGAAUUCAACAGUCGCUUAAUCAGCGGCGAUUUU
- Kd (ProQ [2]; terminator hairpin): 130 ± 34 nM
- Kd (FinO [4]; terminator hairpin): 56 ± 16 nM
- Kd (ProQ [5]): 130 ± 34 nM

B3: malM-RepX (structured_RNA)
RNA: GCUUUAUCAGCAGUGUAAAAGGCAAGGGGUAAUUACGCCCCACAGUGCUGAUUUUGCAACAUUAGGUGCGUCUCCUGGCGCACCGCUCU
- Kd (ProQ [2]; terminator hairpin): 61 ± 29 nM
- Kd (FinO [4]; terminator hairpin): 180 ± 93 nM
- Kd (FinO [6]): 180 ± 93 nM
- Kd (ProQ [7]): 61 ± 29 nM

B4: malM-3' (structured_RNA)
RNA: GCUUUAUCAGCAGUGUAAAAGGCAAGGGGUAAUUACGCCCCACAGUGCUGAUUUUGCAACAACUGGUGCGUCUCCUGGCGCACCUUUUUUU
- Kd ([1]; terminator hairpin, U7 tail): 5.8 ± 0.7 nM
- Kd (ProQ [2]; terminator hairpin, U7 tail): 27 ± 12 nM

B5: FinP (structured_RNA)
RNA: GGAUACAUAGGAACCUCCUCACAAAGGAUUCUAUGGACAGUCGAUGCAGGGAGUUCACGUCUCCCUGCAUCGGCGAUUUU
- Kd [1, 8]: 19 ± 6 nM
- Kd (ProQ [2]; [8]): 79 ± 18 nM
- Kd (FinO [4]; [8]): 110 ± 16 nM

B6: cspE81-3' (structured_RNA)
RNA: GGCCCUUCUGCUGCAAACGUAAUCGCUCUGUAAGAUACGUCAGCAAGAAUUCAAAACCCGCUUAAUCAGCGGGUUUUUUUU
- Kd [1, 9]: 2.4 ± 0.27 nM
- Kd (ProQ [2]; [9]): 37 ± 7.1 nM

B7: cspE81-FinP (structured_RNA)
RNA: B2 RNA with G57C, U58C, C73G
- Kd ([1]; terminator hairpin): 4.9 ± 0.32 nM
- Kd (FinO [4]; terminator hairpin): 88 ± 39 nM

B8: RepX-malM (structured_RNA)
RNA: GCAUUGAUUGCCUCCUUUGCAGGCAGUUGGUGGACUGGCGCUGGCGGGGUCACUACCCCCGCCCUGCGCCUUUUUUU
- Kd ([1]; terminator hairpin): 3.2 ± 1.6 nM
- Kd (FinO [4]; terminator hairpin): 150 ± 67 nM

B9: malM-FinP (structured_RNA)
RNA: GCUUUAUCAGCAGUGUAAAAGGCAAGGGGUAAUUACGCCCCACAGUGCUGAUUUUGCAACAACAGGUGCGUCUCCUGGCGCACCGAUUUU
- Kd (ProQ [2]; terminator hairpin): 78 ± 22 nM
- Kd (FinO [4]; terminator hairpin): 86 ± 17 nM

B10: FinP A39U;G75U (structured_RNA)
RNA: B5 RNA with A39U, G75U
- Kd [1]: 6.2 ± 3.1 nM
- Kd (FinO [4]): 200 ± 73 nM

B11: FinP A39U;G75U;A76U (structured_RNA)
RNA: B5 RNA with A39U, G75U, A76U
- Kd [1]: 9.4 ± 4.5 nM
- Kd (ProQ [2]): 37 ± 5.4 nM
- Kd (FinO [4]): 170 ± 45 nM

B12: malM-3' U64A;U85G (structured_RNA)
RNA: B4 RNA with U64A, U85G
- Kd [1]: 1.9 ± 0.59 nM
- Kd (FinO [4]): 150 ± 40 nM

B13: RepX (structured_RNA)
RNA: GCAUUGAUUGCCUCCUUUGCAGGCAGUUGGUGGUUAGGCGCUGGCGGGGUCACUACCCCCGCCCUGCGCCGCUCU
- Kd (FinO [4]; terminator hairpin, A-G mismatch below): 61 ± 23 nM

B14: malM-3' U64A;U85G;U86A (structured_RNA)
RNA: B4 RNA with U64A, U85G, U86A
- Kd (ProQ [2]): 160 ± 30 nM
- Kd (FinO [4]): 130 ± 18 nM
